Eleven molecules from US20180086836A1 (GLENMARK PHARMACEUTICALS S A, published 2018) can be followed below.

Broadly, the Kd is the constant that tells how readily two partners part at equilibrium. Broadly, the EC50 (read off the curve) is the concentration needed to bring the measured effect to its halfway point.

Test [1] deals with T1, human CCR6 (human, UniProt P51684 1-374).
T1 construct: Full length human CCR6 on transfected BAF or CHO cells, or native on human PBMCs; also called hsCCR6; CCR6 receptor
T1 sequence: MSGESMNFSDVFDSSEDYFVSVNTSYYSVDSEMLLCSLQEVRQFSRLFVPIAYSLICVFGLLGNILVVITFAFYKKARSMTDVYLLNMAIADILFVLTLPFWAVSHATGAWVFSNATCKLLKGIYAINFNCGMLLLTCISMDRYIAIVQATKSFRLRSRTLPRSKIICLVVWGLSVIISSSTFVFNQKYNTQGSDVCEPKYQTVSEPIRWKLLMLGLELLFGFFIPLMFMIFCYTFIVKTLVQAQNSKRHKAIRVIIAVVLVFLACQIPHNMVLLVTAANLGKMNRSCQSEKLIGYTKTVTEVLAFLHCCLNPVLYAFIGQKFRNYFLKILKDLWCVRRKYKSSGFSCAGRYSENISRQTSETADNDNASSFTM
Briefly: flow cytometry on BAF cells transfected with human CCR6, hybridoma supernatant, anti-mouse IgG-PE. On the procedure:
Antibody titers, specificity and production by hybridomas and recombinant antibody candidates were determined by flow cytometry. Briefly, BAF cells transfected with human CCR6 (Generation of these transfected cells is detailed in example 1) were cultured and 2×10⁵ cells were distributed in a 96 well V bottom plate (TPP, Trasadingen, Switzerland), and centrifuged for three minutes at 1300 rpm; supernatants were discarded, cells were collected and analyzed by flow cytometry as described below. Cells were resuspended in 50 μl of hybridoma supernatant or in 50 μl of FACS buffer (PBS, 2% FBS, 10% Versene (Invitrogen, USA)) with 5 μg/mL of isotype control or commercial mouse anti-human CCR6 antibody (clone 11A9, BD Biosciences, Allschwil, Switzerland). Cells were incubated for 30 minutes on ice, washed two times and resuspended in 50 μl of FACS buffer. An anti-mouse IgG-Phycoerithrin-PE (BD Biosciences, Allschwil, Switzerland) diluted 1/200 was used to detect CCR6-specific mouse hybridoma and the isotype control antibody. Cells were incubated for 15 minutes on ice, washed once, resuspended in 400 μl of FACS buffer and analyzed on the FACS instrument (Cyan, Beckman Coulter International S.A., Nyon, Switzerland).
For orientation: Flow cytometry measures light scatter and fluorescence of single cells or particles in a stream.

Test [2] concerns the target T2, recombinant human N-terminal CCR6 Fc (human).
T2 construct: also called human CCR6-Fc; hsCCR6-Nter-Fc
Briefly: SPR, human CCR6 N-terminal peptide Fc on the chip, FAB as analyte. For orientation: SPR reads the build-up and loss of mass on a sensor chip optically.

Test [3] deals with T3, recombinant cynomologus N-terminal CCR6 peptide Fc (cynomolgus monkey; human).
T3 construct: It differs from the human construct only in the CCR6 N-terminus; also called Cyno CCR6-Fc; cynoCCR6-Nter-Fc
The experiment in a line: SPR, cynomolgus CCR6 N-terminal Fc fusion coupled on the sensor chip, FAB as analyte.

Test [4] addresses T2, recombinant human N-terminal CCR6 Fc. The experiment in a line: SPR, FAB as analyte, fusion protein coupled onto the sensor chip.
Test [5] has as its target T3, recombinant cynomologus N-terminal CCR6 …. The description is as above.
Test [6] concerns the target T2, recombinant human N-terminal CCR6 Fc. The experiment in a line: SPR, human CCR6 N-terminal Fc fusion coupled on the sensor chip, FAB as analyte.
For test [7] the target is unchanged. The experiment in a line: direct ELISA, Fc fusion coated at 2 µg/ml, anti-human F(ab')2-HRP. On the procedure: (§1) FIG. 8: Direct binding ELISA on immobilized recombinant human N-terminal CCR6 Fc. Binding of humanized 4H11 H5L1 antibody on human N terminus fragment of CCR6 was measured by direct ELISA. Various concentrations (ranging from 10 to 0.00006 μg/ml) of humanized 4H11 H5L1 in IgG1 and IgG4HS backbones were incubated with 2 μg/ml of either recombinant human N terCCR6-Fc tagged protein (FIG. 8A) or recombinant cynomologus N-terminal peptide Fc (FIG. 8B), coated overnight at 4° C. in a 96-well plate. Binding of humanized 4H11 H5L1 antibody to Nter CCR6-Fc protein was detected by horseradish peroxidase (HRP)-conjugated anti-human (Fab)′2-specific antibody.
(§2) A binding ELISA was performed to test the reactivity of 4H11 VH5/VL1 IgG1 and 4H11 VH5/VL1 IgG4HS antibodies on peptides consisting of the N-terminal region of CCR6 from human and cynomologus species. Briefly, 96 well-microtiter plates (Costar USA, distributor VWR AG, Nyon, Switzerland) were coated with 100 μl of recombinant human and cynomologus N-terminus peptide-Fc at 2 μg/ml in PBS. Plates were incubated overnight at 4° C. and were then blocked with PBS 2% BSA (Bovine Serum Albumine, PAA Laboratories, Pasching, Austria) at room temperature (RT) for one hour. The blocking solution was removed and various concentrations of 4H11 VH5/VL1 IgG1 and 4H11 VH5/VL1 IgG4HS were added. The plates were incubated at RT for 1 hour, then washed six times with PBS 0.01% Tween-20 (Sigma-Aldrich Chemie GmbH, Buchs, Switzerland) and a goat-anti human Ig F(ab′)2 fragment specific-HRP (Jackson ImmunoResearch Europe Ltd, Newmarket, UK). After washing, the plates were incubated with TMB substrate (Bio-Rad Laboratories AG, Reinach, Switzerland) to reveal antibody binding. The reaction was stopped by adding 2M H₂SO₄ and the optical density was read at 450 nm (OD 450 nm) on a Synergy HT2 spectrophotometer (Biotek, USA; distributor: WITTEC AG, Littau, Switzerland).
For orientation: ELISA stands for enzyme-linked immunosorbent assay.

The target in test [8] is T3, recombinant cynomologus N-terminal CCR6 …. The test is described as above. On the procedure:
as §1, §2

The target of test [9] is T2, recombinant human N-terminal CCR6 Fc. Briefly: SPR (Biacore) off-rate ranking of scFv on the human CCR6 N-terminal Fc fusion.

B1: 4H11 (antibody, V domains shown)
VH: EVKLVESGGGLVQPGGSLKLSCATSGFSFSDYYMYWIRQTPEKRLEWVAYITNGGITYYPDTVKGRFTISRDNAKNTLYLQMSRLRSEDTAMYYCTSPLRGAWFAYWGQGTLVTVSS
VL: DVIMTQSPLSLPVSLGDQASISCRSSQSIVHSNGNTYLEWYLQKPGQSPKLLIYKVSNRFSGVPDRFSGSGSGTDFTLKISRVEAEDLGLYYCFQGSHVPLTFGAGTKLEIK
notes: parent of the chimeric 4H11 antibody m1; also called murine antibody 4H11; hybridoma clone 4H11
For B1, in test [1], the binding result is “binds”.

B2: VH5/VL1 L1-N28T FAB (Fab, V domains shown)
VH: EVQLVESGGGLVQPGGSLRLSCAASGFSFSDYYMYWVRQAPGKGLEWVSYITNGGITYYPDSVKGRFTISRDNSKNTLYLQMNSLRAEDTAVYYCTSPLRGAWFAYWGQGTLVTVSS
VL: DVVMTQSPLSLPVTLGQPASISCRSSQSIVHSTGNTYLEWYQQRPGQSPRLLIYKVSNRFSGVPDRFSGSGSGTDFTLKISRVEAEDVGVYYCFQGSHVPLTFGQGTKLEIKR
notes: CDR-L1 deamidation-site variant; copies: 1 + 1
In the case of B2, the binding result in [2] is recorded as “binds”.

B3: VH5/VL1 FAB (parental) (Fab, V domains shown)
VH: EVQLVESGGGLVQPGGSLRLSCAASGFSFSDYYMYWVRQAPGKGLEWVSYITNGGITYYPDSVKGRFTISRDNSKNTLYLQMNSLRAEDTAVYYCTSPLRGAWFAYWGQGTLVTVSS
VL: DVVMTQSPLSLPVTLGQPASISCRSSQSIVHSNGNTYLEWYQQRPGQSPRLLIYKVSNRFSGVPDRFSGSGSGTDFTLKISRVEAEDVGVYYCFQGSHVPLTFGQGTKLEIK
notes: Human FAB fragment; also called parental FAB; parental VH5/VL1 FAB
On to B3, for which the equilibrium dissociation constant (Kd) in test [3] was 33.6 nM.

B4: VH5/VL1 L1-N28S FAB (Fab, V domains shown)
VH: EVQLVESGGGLVQPGGSLRLSCAASGFSFSDYYMYWVRQAPGKGLEWVSYITNGGITYYPDSVKGRFTISRDNSKNTLYLQMNSLRAEDTAVYYCTSPLRGAWFAYWGQGTLVTVSS
VL: DVVMTQSPLSLPVTLGQPASISCRSSQSIVHSSGNTYLEWYQQRPGQSPRLLIYKVSNRFSGVPDRFSGSGSGTDFTLKISRVEAEDVGVYYCFQGSHVPLTFGQGTKLEIKR
notes: as for B2
Turning to B4, in [2], the binding result is “binds”.

B5: VH5/VL1-B3G8-G29A FAB (Fab, name in Kabat numbering, V domains shown)
VH: EVQLVESGGGLVQPGGSLRLSCAASGFSFSDYYMYWVRQAPGKGLEWVSYITTGGRTYYPDSVKGRFTISRDNSKNTLYLQMNSLRAEDTAVYYCTSPLRGAWFAYWGQGTLVTVSS
VL: DVVMTQSPLSLPVTLGQPASISCRSSQSIVHSNANTYLEWYQQRPGQSPRLLIYKVSNRFSGVPDRFSGSGSGTDFTLKISRVEAEDVGVYYCFQGTYLPLTFGQGTKLEIK
B5: the Kd was approximately 0.5 nM in test [4], approximately 1 nM in test [5], 0.526 nM in test [6] and 1.17 nM in [3]. Also, the “fold improvement in KD value over the first pair of FAB constructs” value in test [4] came out at 2 fold. For the same molecule, the “fold improvement in affinity compared to the parental VH5/VL1 FAB” value in test [4] is approximately 40 fold; in [5], approximately 30 fold.

B6: VH5/VL1-G8-G29A FAB (Fab, V domains shown)
VH: EVQLVESGGGLVQPGGSLRLSCAASGFSFSDYYMYWVRQAPGKGLEWVSYITNGGITYYPDSVKGRFTISRDNSKNTLYLQMNSLRAEDTAVYYCTSPLRGAWFAYWGQGTLVTVSS
VL: DVVMTQSPLSLPVTLGQPASISCRSSQSIVHSNANTYLEWYQQRPGQSPRLLIYKVSNRFSGVPDRFSGSGSGTDFTLKISRVEAEDVGVYYCFQGTYLPLTFGQGTKLEIK
As to B6, in test [4], the “fold improvement in KD value compared to the parental FAB” value is approximately 20 fold. The results for the Kd in test [6] and in test [3] were 1 nM and 2.19 nM, respectively.

B7: VH5/VL1-C9-G29A FAB (Fab, V domains shown)
VH: EVQLVESGGGLVQPGGSLRLSCAASGFSFSDYYMYWVRQAPGKGLEWVSYITNGGITYYPDSVKGRFTISRDNSKNTLYLQMNSLRAEDTAVYYCTSPLRGAWFAYWGQGTLVTVSS
VL: DVVMTQSPLSLPVTLGQPASISCRSSQSIVHSNANTYLEWYQQRPGQSPRLLIYKVSNRFSGVPDRFSGSGSGTDFTLKISRVEAEDVGVYYCFQGTYYPLTFGQGTKLEIK
As to B7, the “fold improvement in KD value compared to the parental FAB” value in test [4] was approximately 20 fold. Moreover, the values for the Kd in test [6] and in test [3] were 1.28 nM and 2.79 nM, respectively.

B8: 4H11 VH5/VL1 IgG1 antibody (antibody, V domains shown)
VH: EVQLVESGGGLVQPGGSLRLSCAASGFSFSDYYMYWVRQAPGKGLEWVSYITNGGITYYPDSVKGRFTISRDNSKNTLYLQMNSLRAEDTAVYYCTSPLRGAWFAYWGQGTLVTVSS
VL: DVVMTQSPLSLPVTLGQPASISCRSSQSIVHSNGNTYLEWYQQRPGQSPRLLIYKVSNRFSGVPDRFSGSGSGTDFTLKISRVEAEDVGVYYCFQGSHVPLTFGQGTKLEIKR
notes: also called H5/L1; VH5/VL1 antibody
Consider B8, for which the concentration for a half-maximal effect (EC50 (read off the curve)) was approximately 0.07 µg/mL in test [7] and approximately 0.2 µg/mL in test [8].

B9: VH5/VL1 L1-G29A FAB (Fab, V domains shown)
VH: EVQLVESGGGLVQPGGSLRLSCAASGFSFSDYYMYWVRQAPGKGLEWVSYITNGGITYYPDSVKGRFTISRDNSKNTLYLQMNSLRAEDTAVYYCTSPLRGAWFAYWGQGTLVTVSS
VL: DVVMTQSPLSLPVTLGQPASISCRSSQSIVHSNANTYLEWYQQRPGQSPRLLIYKVSNRFSGVPDRFSGSGSGTDFTLKISRVEAEDVGVYYCFQGSHVPLTFGQGTKLEIK
notes: VH5/VL1 FAB fragment with G29A in CDR-L1
As to B9, in [2], the binding result is recorded as “binds”.

B10: VH5/VL1-B3C9-G29A FAB (Fab, name in Kabat numbering, V domains shown)
VH: EVQLVESGGGLVQPGGSLRLSCAASGFSFSDYYMYWVRQAPGKGLEWVSYITTGGRTYYPDSVKGRFTISRDNSKNTLYLQMNSLRAEDTAVYYCTSPLRGAWFAYWGQGTLVTVSS
VL: DVVMTQSPLSLPVTLGQPASISCRSSQSIVHSNANTYLEWYQQRPGQSPRLLIYKVSNRFSGVPDRFSGSGSGTDFTLKISRVEAEDVGVYYCFQGTYYPLTFGQGTKLEIK
As for B10, the dissociation constant Kd was approximately 0.5 nM in test [4], approximately 1 nM in test [5], 0.544 nM in test [6] and 1.23 nM in test [3]. In addition, the “fold improvement in KD value over the first pair of FAB constructs” value in [4] amounted to 2 fold. Also, the entries for the “fold improvement in affinity compared to the parental VH5/VL1 FAB” value in test [4] and in [5] were approximately 40 fold and approximately 30 fold, respectively.

B11: VH5/VL1-L3-G8 scFv variant (scFv)
scFv: EVQLVESGGGLVQPGGSLRLSCAASGFSFSDYYMYWVRQAPGKGLEWVSYITNGGITYYPDSVKGRFTISRDNSKNTLYLQMNSLRAEDTAVYYCTSPLRGAWFAYWGQGTLVTVSSGGGGSGGGGSGGGGSTDVVMTQSPLSLPVTLGQPASISCRSSQSIVHSNGNTYLEWYQQRPGQSPRLLIYKVSNRFSGVPDRFSGSGSGTDFTLKISRVEAEDVGVYYCFQGTYLPLTFGQGTKLEIK
Consider B11, for which the binding result in test [9] was “binds”.
